Assay results: the RNAGym collection of RNA variant scans (doi:10.7554/elife.80360)

B1: CPEB3 Ribozyme (parent)
chain: GGGGGCCACAGCAGAAGCGUUCACGUCGCGGCCCCUGUCAGAUUCUGGUGAAUCUGCGAAUUCUGCUGU

Variants of: B1
Assay: self-cleavage, relative activity (ratio to wild type); higher = more cleavage; co-transcriptional

Variant | self-cleavage
GGGGGCCACAGCAGCAGCGUUCACGUCGCGGCCCCUGUCAGAUUCUGGUUAAUCUGCGAAUUCUGCUGU [A15C G50U] | 0.878
GGGGGCCACAGCAGCAGCGUUCACGUAGCGGCCCCUGUCAGAUUCUGGUGAAUCUGCGAAUUCUGCUGU [A15C C27A] | 0.091
GGGGGCCACAGCAGGAGCGUUCACGUCCCGGCCCCUGUCAGAUUCUGGUGAAUCUGCGAAUUCUGCUGU [A15G G28C] | 0.165
GGGGGCCACAGCAGCAGCGUUCACGUCGCGGCCCCUGUCAGAUUCUGGUGAAUCUGCGAAUCCUGCUGU [A15C U62C] | 0.841
GGGGGCCACAGCAGCAGCGUUCACGUCGCGGCCCCUGUCAGAUUCUGGUGAAUCUGCGAAUACUGCUGU [A15C U62A] | 0.912
GGGGGCCACAGCAGCAGCGUUCACGUCGCGGCCCCUGUCAGAUUCUGGUGAAUCUGCGAAUGCUGCUGU [A15C U62G] | 1.02
GGGGGCCACAGCAGCAGCGUUCACGUCGCGGCCCCUGUCAGAUUCUGGUGAAUCUGAGAAUUCUGCUGU [A15C C57A] | 0.282
GGGGGCCACAGCAGCAGCGUUCACGUCGCGGCCCCUGUCAGAUUCUGGUGAAUCUGGGAAUUCUGCUGU [A15C C57G] | 0.269
GGGGGCCACAGCAGCAGCGUUCACGUCGCGGCCCCUGUCAGAUUCUGGUGAAUCUGCGAAUUCUGGUGU [A15C C66G] | 0.351
GGGGGCCACAGCAGGACCGUUCACGUCGCGGCCCCUGUCAGAUUCUGGUGAAUCUGCGAAUUCUGCUGU [A15G G17C] | 0.138
GGGGGCCACAGCAGGAGCGUUCACGUCGCGUCCCCUGUCAGAUUCUGGUGAAUCUGCGAAUUCUGCUGU [A15G G31U] | 0.558
GGGGGCCACAGCAGGAGCGUUGACGUCGCGGCCCCUGUCAGAUUCUGGUGAAUCUGCGAAUUCUGCUGU [A15G C22G] | 0.157
GGGGGCCACAGCAGGAGCGUUAACGUCGCGGCCCCUGUCAGAUUCUGGUGAAUCUGCGAAUUCUGCUGU [A15G C22A] | 0.191
GGGGGCCACAGCAGCAGCGUUCACGUCGCGGCCCCUGUCAGAUUCUGGUGAAUCUGCGAAUUUUGCUGU [A15C C63U] | 0.937
GGGGGCCACAGCAGCAGCGUUCACGUCGCGGCCCCUGUCAGAUUCUGGUGAAUCUGCGAAUUAUGCUGU [A15C C63A] | 0.921
GGGGGCCACAGCAGCAGCGUUCACGUCGCGGCCCCUGUCAUAUUCUGGUGAAUCUGCGAAUUCUGCUGU [A15C G41U] | 0.463
GGGGGCCACAGCAGCAGCGUUCACGUCGCGGCCCCUGUCAGAUUCUGGUGAAUCUGCUAAUUCUGCUGU [A15C G58U] | 0.936
GGGGGCCACAGCAGCAGCGUUCACGUCGCGGCCCCUGUCAGAUUCUGGUGAAUCUGCGAAUUCUGCUAU [A15C G68A] | 0.966
GGGGGCCACAGCAGGAGCGUUCACGUCGUGGCCCCUGUCAGAUUCUGGUGAAUCUGCGAAUUCUGCUGU [A15G C29U] | 0.358
GGGGGCCACAGCAGGAGCGUUCACGUCGCCGCCCCUGUCAGAUUCUGGUGAAUCUGCGAAUUCUGCUGU [A15G G30C] | 0.618

Variant | self-cleavage
GGGGGCCACAGCAGGAGCGUUCACGUCGCGGCCCCUGUCAGAUUCUGGUGAAUCUGCGAAUUCUGGUGU [A15G C66G] | 0.862
GGGGGCCACAGCAGGAGCGUUCACGUCGCGGCCCCUGUCAGAUUCUGGUGAUUCUGCGAAUUCUGCUGU [A15G A52U] | 0.959
GGGGGCCACAGCAGGAGCGUUCACGUCGCGGCCCCUGUCAGAUUCUGGUGAGUCUGCGAAUUCUGCUGU [A15G A52G] | 1.03
GGGGGCCACAGCAGCAGCGUUCACGUCGCGGCCCCUGUCAGAUUCGGGUGAAUCUGCGAAUUCUGCUGU [A15C U46G] | 0.929
GGGGGCCACAGCAGCAGCGUUCACCUCGCGGCCCCUGUCAGAUUCUGGUGAAUCUGCGAAUUCUGCUGU [A15C G25C] | 0.186
GGGGGCCACAGCAGCAGCGUUCACUUCGCGGCCCCUGUCAGAUUCUGGUGAAUCUGCGAAUUCUGCUGU [A15C G25U] | 0.192
GGGGGCCACAGCAGCAGCGUUCACGUCGCGGCCCUUGUCAGAUUCUGGUGAAUCUGCGAAUUCUGCUGU [A15C C35U] | 0.686
GGGGGCCACAGCAGGAGCGUUCACGUCGCGGCCCCUGUCUGAUUCUGGUGAAUCUGCGAAUUCUGCUGU [A15G A40U] | 0.851
GGGGGCCACAGCAGGAGCGUUCACGUCGCGGCCCCUGUCCGAUUCUGGUGAAUCUGCGAAUUCUGCUGU [A15G A40C] | 0.631
GGGGGCCACAGCAGCACCGUUCACGUCGCGGCCCCUGUCAGAUUCUGGUGAAUCUGCGAAUUCUGCUGU [A15C G17C] | 0.131
GGGGGCCACAGCAGCAGCGUUCACGUCGCCGCCCCUGUCAGAUUCUGGUGAAUCUGCGAAUUCUGCUGU [A15C G30C] | 0.189
GGGGGCCACAGCAGCAGCGUGCACGUCGCGGCCCCUGUCAGAUUCUGGUGAAUCUGCGAAUUCUGCUGU [A15C U21G] | 0.157
GGGGGCCACAGCAGCAGCGUUCACGUCGCGGCCCCUGUCAGAUUCUGGUGAAUCUGCGAAUUCUGCUGG [A15C U69G] | 1.02
GGGGGCCACAGCAGCAGCGUUCACGUCGCGGCCCCUGUCAGAUUCUGGUGAAUCUGCGAAUUCUGCUGA [A15C U69A] | 0.962
GGGGGCCACAGCAGCAGCGUUCACGUCGCGGCCCCUGUAAGAUUCUGGUGAAUCUGCGAAUUCUGCUGU [A15C C39A] | 0.359
GGGGGCCACAGCAGGAGCGUUCCCGUCGCGGCCCCUGUCAGAUUCUGGUGAAUCUGCGAAUUCUGCUGU [A15G A23C] | 0.919
GGGGGCCACAGCAGCAGCGUUCACGUCGCGGCCUCUGUCAGAUUCUGGUGAAUCUGCGAAUUCUGCUGU [A15C C34U] | 0.909
GGGGGCCACAGCAGCAGCGUUCACGUCGCGGCCGCUGUCAGAUUCUGGUGAAUCUGCGAAUUCUGCUGU [A15C C34G] | 0.131
GGGGGCCACAGCAGCAGCGUUCACGUCGCGGCCCCUGUCAGAUUCUGGUGAACCUGCGAAUUCUGCUGU [A15C U53C] | 0.451
